Results from US20030073236A1, “p193 proteins and nucleic acids, and uses thereof” (priority 1999, published 2003).

Molecular target: p193myc (p193 protein harboring a C-terminal myc epitope tag, from CMV-p193myc) (mouse) (UniProt Q8VE73)
Experiment: cell-based or functional assay

## SV40 Large T Antigen (T-Ag) (from UniProt P03070 1-708)
  co-localization to the cytoplasm in co-transfected NIH-3T3 cells (immune cytologic analyses): 63%
